Laboratory results taken from the supplement of paper PMC9112550, “Optimization of the antimicrobial peptide Bac7 by deep mutational scanning” (BMC Biology, 2022).

test system: Escherichia coli TOP10; experiment: shrunken log2 fold change of peptide-encoding DNA abundance (4.5 h post-induction vs induction); higher = less antimicrobial activity (less host growth inhibition); conditions: time post-induction: 4.5 h; library: site-saturation at positions 5, 18, 19, 20
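Further: peptides expressed intracellularly from a pBAD plasmid library in pooled LB shake-flask culture, induced with 0.3% L-arabinose, DNA abundance read by NGS, three biological replicates, DESeq2 with apeglm shrinkage.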

| Sequence | shrunken log2 fold change |
| --- | --- |
| RRIRARPPRLPRPRPRPHHPPRP | -0.242 |
| RRIRPRPPRLPRPRPRPTVAPRP | 0.277 |
| RRIRFRPPRLPRPRPRPPSDPRP | 0.201 |
| RRIRRRPPRLPRPRPRPVCEPRP | 0.935 |
| RRIRYRPPRLPRPRPRPRNPPRP | 0.0734 |
| RRIRHRPPRLPRPRPRPQGKPRP | -0.0805 |
| RRIRSRPPRLPRPRPRPSSRPRP | -0.288 |
| RRIRDRPPRLPRPRPRPRCEPRP | 0.161 |
| RRIRFRPPRLPRPRPRPVGWPRP | 0.62 |
| RRIRSRPPRLPRPRPRPEAWPRP | 0.0495 |
| RRIRPRPPRLPRPRPRPGHDPRP | 0.235 |
| RRIRYRPPRLPRPRPRPQCLPRP | 0.0613 |
| RRIRTRPPRLPRPRPRPWHLPRP | -0.0134 |
| RRIRLRPPRLPRPRPRPCKYPRP | -0.0018 |
| RRIRTRPPRLPRPRPRPKCNPRP | -0.221 |
| RRIRGRPPRLPRPRPRPFRNPRP | 0.0285 |
| RRIRERPPRLPRPRPRPLKVPRP | -0.0726 |
| RRIRTRPPRLPRPRPRPFWAPRP | 0.346 |
| RRIRGRPPRLPRPRPRPGIKPRP | 0.429 |
| RRIRNRPPRLPRPRPRPPHCPRP | 0.0234 |
| RRIRSRPPRLPRPRPRPTHLPRP | 0.135 |
| RRIRARPPRLPRPRPRPQEMPRP | -0.0254 |
| RRIRCRPPRLPRPRPRPNNCPRP | -0.636 |
| RRIRGRPPRLPRPRPRPFKLPRP | -0.167 |
| RRIRARPPRLPRPRPRPWEKPRP | -0.164 |

| Sequence | shrunken log2 fold change |
| --- | --- |
| RRIRQRPPRLPRPRPRPVQLPRP | 0.163 |
| RRIRKRPPRLPRPRPRPSDKPRP | -0.41 |
| RRIRARPPRLPRPRPRPLPNPRP | 0.286 |
| RRIRDRPPRLPRPRPRPPIMPRP | 0.0621 |
| RRIRHRPPRLPRPRPRPDFSPRP | -0.0123 |
| RRIRQRPPRLPRPRPRPFQWPRP | 0.0154 |
| RRIRPRPPRLPRPRPRPTRQPRP | 0.221 |
| RRIRFRPPRLPRPRPRPNWPPRP | 0.333 |
| RRIRTRPPRLPRPRPRPESTPRP | -0.0383 |
| RRIRERPPRLPRPRPRPVRWPRP | 0.635 |
| RRIRDRPPRLPRPRPRPAKMPRP | -0.156 |
| RRIRVRPPRLPRPRPRPKDKPRP | -0.13 |
| RRIRFRPPRLPRPRPRPRQCPRP | -0.123 |
| RRIRKRPPRLPRPRPRPQKYPRP | -0.184 |
| RRIRTRPPRLPRPRPRPCYTPRP | -0.0244 |
| RRIRARPPRLPRPRPRPQSHPRP | -0.162 |
| RRIRVRPPRLPRPRPRPIVYPRP | -0.0876 |
| RRIRARPPRLPRPRPRPRIQPRP | 0.505 |
| RRIRYRPPRLPRPRPRPNINPRP | -1.37 |
| RRIRRRPPRLPRPRPRPCGEPRP | 0.0238 |
| RRIRQRPPRLPRPRPRPGAKPRP | 0.177 |
| RRIRERPPRLPRPRPRPMVRPRP | -0.019 |
| RRIRKRPPRLPRPRPRPDYKPRP | -0.208 |
| RRIRDRPPRLPRPRPRPLSKPRP | 0.132 |
| RRIRSRPPRLPRPRPRPPSVPRP | 0.279 |

| Sequence | shrunken log2 fold change |
| --- | --- |
| RRIRWRPPRLPRPRPRPWPAPRP | 0.62 |
| RRIRIRPPRLPRPRPRPQWWPRP | 0.0271 |
| RRIRSRPPRLPRPRPRPQRGPRP | 0.274 |
| RRIRRRPPRLPRPRPRPHLVPRP | 0.127 |
| RRIRCRPPRLPRPRPRPQRYPRP | -0.105 |
| RRIRNRPPRLPRPRPRPHFTPRP | -0.0512 |
| RRIRHRPPRLPRPRPRPFYKPRP | -0.774 |
| RRIRARPPRLPRPRPRPFSAPRP | -0.0294 |
| RRIRWRPPRLPRPRPRPNEVPRP | 0.0902 |
| RRIRRRPPRLPRPRPRPSCFPRP | -0.0896 |
| RRIRRRPPRLPRPRPRPVFSPRP | -0.0171 |
| RRIRMRPPRLPRPRPRPWWDPRP | 0.142 |
| RRIRQRPPRLPRPRPRPYNIPRP | -0.395 |
| RRIRVRPPRLPRPRPRPCNKPRP | -0.311 |
| RRIRPRPPRLPRPRPRPMQCPRP | 0.00596 |
| RRIRWRPPRLPRPRPRPPRAPRP | 0.782 |
| RRIRARPPRLPRPRPRPKDNPRP | 0.153 |
| RRIRQRPPRLPRPRPRPTTEPRP | 0.26 |
| RRIRCRPPRLPRPRPRPKGNPRP | -0.31 |
| RRIRFRPPRLPRPRPRPAYGPRP | -0.41 |
| RRIRLRPPRLPRPRPRPQSYPRP | -0.242 |
| RRIRMRPPRLPRPRPRPPSCPRP | 0.932 |
| RRIRNRPPRLPRPRPRPHPSPRP | -0.25 |
| RRIRPRPPRLPRPRPRPRVFPRP | 0.607 |
| RRIRKRPPRLPRPRPRPTKCPRP | -0.184 |
